Laboratory results reported in the supplement of paper PMC12042874.
± gives the uncertainty stated by the source.

Experiment: amyloid nucleation score (Sup35N fusion, yeast selection) (log enrichment); library NNK3; higher = more nucleation; inactive = no reads after selection
Procedure, shortened: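 Growth for 7 days at 30°C on medium lacking adenine and uracil followed a 24-hour induction with 100 μM copper sulfate of psi-negative yeast expressing peptides of 20 random codons fused to Sup35N. Input and output plasmid inserts were sequenced with Illumina, and sequences with under 100 input reads were excluded. Nucleation score is the DiMSum log enrichment of output over input reads, centred on the mode score of non-aggregating sequences.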

Substance | amyloid nucleation score
LNFSHGSCGSFCGSIMIST | inactive
LNILVTC | inactive
LNKHSAYGTDLVYSRLKFVL | inactive
LNLHSSLGMFASLGDMIRVT | inactive
LNLSYGM | inactive
LNLWPNSD | inactive
LNNSTSCEVGKNVCISFKWA | 2.22 ± 0.089
LNPNYRNAYLNYRVLFY | inactive
LNPTAYYVVPLVLALAWISH | inactive
LNRVINYLIKLYFAGWVSHD | inactive
LNSTTCLTAGWIGNAFIACN | inactive
LNTDESWGFMCLTKFE | inactive
LNTPPQVSMGSEGLSFNMSF | inactive
LNTRVGSFTNRLWSRMKEGG | inactive
LNWGLVTDSTFIWLMDTLRL | 1.05 ± 0.11
LNWVKTYVAYLFFYSISKRC | inactive
LPGSDRQFPREAVHYSRMRG | 0.714 ± 0.32
LPICDQTIWFLPSRAVAGNV | inactive
LPICVVMDKRFCTIVISSST | inactive
LPILHSRPVIQETL | inactive
LPSDSGYTGYHVWTLKSTCD | inactive
LPTSQA | inactive
LPWSINRCNRVENQLVYVWN | 1.1 ± 0.14

Substance | amyloid nucleation score
LPYTGIYSRFRDRLWCVLKT | inactive
LQAHCSNFWVFYMAFGPIDF | 1.76 ± 0.095
LQCAHLFPV | 0.931 ± 0.099
LQIPKPFAMKYTMFQRKQND | inactive
LQRGTQVYRCSLSFVRNVRF | inactive
LQRPASEFSERGA | inactive
LQSRF | inactive
LQSVMFLPICFLLT | inactive
LQYHRLGQLPRQNRDTVLLL | inactive
LRCYDILLDA | inactive
LREYFMFPRVHNLFNLV | inactive
LRGCLKSVIDTSLG | inactive
LRGCVNAYLRYHTRGLVVLR | inactive
LRGKDN | inactive
LRIMSIYIEEALSIGHDNWF | 0.205 ± 0.46
LRKRRGPK | inactive
LRKSLTEQPPKGLASRLYWS | inactive
LRSFQWVIVTMPLTRIRSDK | inactive
LRSWPVLHSAISTND | inactive
LRVILQLYIEGLIVQ | inactive
LRVKNDVHGLLELGSVDVSI | inactive
LRWSGFIGDAYGYLFKEWGQ | 0.145 ± 0.33
LSASGYQSCSNVMMSTHVSN | inactive

Substance | amyloid nucleation score
LSCDGNRGTVFVIRIFSGDV | 2.62 ± 0.078
LSDGSHLSECYGFT | inactive
LSDVDPEFLFLLLFFP | inactive
LSDYIGAPFSSKSRDW | inactive
LSFAVKCFRIGDMNAFNTFI | inactive
LSFDVKASWV | inactive
LSFQAMLVR | inactive
LSFWVSYLGIVFLQNICEEW | inactive
LSGADTYRSTTRSYGGNDVV | -0.641 ± 1.1
LSIYRFSCTNSRCLMDLFI | inactive
LSLAVKVIVKG | inactive
LSNDQSDTMEKCRRSVTLW | inactive
LSNRGLIYHEGTRICATYRE | 0.719 ± 0.22
LSQIEGWKCIGWVHYMVDSI | inactive
LSRINSCRLMVQVQLSRT | inactive
LSSGNGSFVRYI | inactive
LSSMWWLVRFYNFAF | inactive
LSTMN | inactive
LSVCVRPWRNKTDVVGNGNK | inactive
LSVHTLHNG | inactive
LSVITVLNKKNRSDIMWIMI | inactive
LSVSYTLALTALLRHRERVW | inactive
LSWFIYWDKIRGWSKMTIGQ | inactive

Substance | amyloid nucleation score
LSWTYGRMGLRRLGGTGCYG | inactive
LSYSIRLLIFVRR | -0.293 ± 0.82
LTASYSFVTTVGYSGLDLKV | inactive
LTDRQVCNLIWNNAYGFLC | 0.257 ± 0.52
LTKGLSAMLQFRWRAVFKNG | inactive
LTKGQ | inactive
LTLCNPPTTRRTNATFLHCL | inactive
LTLSYKQERTTARGKPVYLR | inactive
LTNTLAYTVRKKTFQIGLLC | inactive
LTSPREMAWCPHDTAICGTT | inactive
LTSVMIFVLVRIELPNQTLS | inactive
LTTESNLHVCVRRVGQLHLA | inactive
LTYAALYLNGKMNVENARVV | inactive
LTYGFFESNFGGCNRFCF | inactive
LVAFATWYNGWWVPRENEFR | 0.033 ± 0.47
LVALKSHDT | inactive
LVCNRWPNCANCRCRP | inactive
LVFSTSLH | inactive
LVIVRWNAVYTYIGFDF | inactive
LVKIWDPSFNCFWMNGISNG | 1.01 ± 0.14
LVKNITPNAA | inactive
LVLRFTSIDFKLFRRHST | inactive
LVLVQEKHRSRTAEFDHRLT | -0.186 ± 0.94

Substance | amyloid nucleation score
LVLYCF | inactive
LVLYYCVTG | inactive
LVMPYDMCCTRFQRAFSVCC | inactive
LVPFSNGCQSGPLTLIWYVA | 2.04 ± 0.068
LVRYLENIRLRS | inactive
LVVCTSAFIGMTDY | -0.532 ± 0.8
LVVIWSRYSPRRNYPVTSNM | 0.679 ± 0.24
LVWDKVSVVWNSKEGVNVRI | 0.256 ± 0.22
LVWRTSINSLRMVEDNRDEV | inactive
LVWWDGSEWTTWGVADIDWT | inactive
LWLSDRNSLDSIAVCA | 1.24 ± 0.093
LWPAAQLLLKRE | inactive
LWPWFNCLRGRCGRIVCGWR | inactive
LWRWKYRAILKRYEKERVGR | inactive
LWTALK | inactive
LWVYAPFDSK | inactive
LYAKF | inactive
LYCGDSI | inactive
LYEAVDRGLSRR | inactive
LYFFYMPQTWVVSRCCGYNP | 3.06 ± 0.079
LYINVHLEEIIFSLALREK | 1.71 ± 0.057
LYLFMAYGVLGVLRQ | 0.397 ± 0.42
LYLIFFCLWSSQLDAQLFVL | -0.217 ± 0.93

Substance | amyloid nucleation score
LYRAIIIRRWFGNMGDFHKP | inactive
LYTGYVLAIMYWAVLARENT | -1.45 ± 2.5
LYVFCTSY | inactive
LYVLWRLGKQCHTFWFFSSI | 0.265 ± 0.44
LYWATGLGVNFKFNLCLDDA | inactive
LYWEPKLTSDFKRLDLRLVP | inactive
LYYKSLGRCRNYLYCSH | 0.596 ± 0.12
LYYMKVIGTFRISEAILLYL | inactive
MALHRFS | inactive
MALLLDILMNNNFISIKGFI | inactive
MASFSRHVCMYGTLNLSGNA | inactive
MCFEVLHACRYFVRHSSQRI | inactive
MCGDCICVVSVMLAHAPKCS | inactive
MCMLIYCYAQSLVMKMDSHY | inactive
MCNWMNNLADSGLSASSVQV | inactive
MCQKQHQYQVTAIRTYMIRF | inactive
MCQNANRYTGMSLVMFVGSV | 1.24 ± 0.12
MCTNMSRNQFITDIVLCDRS | inactive
MCTTRGYMF | inactive
MCWLLLIRWDK | inactive
MDGGFECGNEGICWSTCVLG | inactive
MDRASVCLEGGMSMVWLRYV | inactive
MDSFRRDEYFKSLFVMLYLS | inactive

Substance | amyloid nucleation score
MEFYVYTMDKRCSRMFSWHS | inactive
MFEMS | inactive
MFLFFHVFKDFQIHRDLQDW | 0.08 ± 0.59
MFLSWCKKVNLRMIILSSDT | inactive
MFNSFTNWLRQDQCRTIIGS | inactive
MFRWLAQWALLTTTSRPASQ | inactive
MFSSLV | inactive
MFVVYLGYRRAVIDNDALED | inactive
MFVWHSC | inactive
MGGELCY | inactive
MGGICRASRCCGCPTGRNCL | 0.665 ± 0.27
MGHHRCYVRVSKKDYWF | inactive
MGLLLFLSANDV | inactive
MGMFTNPT | inactive
MGMLNGSSSMSDGYVYGGLW | inactive
MGPWCRKWIICLTRVSYRVG | inactive
MGVIMEGMRFFFVWMQM | inactive
MGVSADTYYNIRM | 0.161 ± 0.43
MGVVRFTYCDIKV | inactive
MHHVLYERERSY | inactive
MIFLRIFYGLLGNSQFIIFL | 0.331 ± 0.56
